Test: soluble on expression in E. coli; label from the status in PepcDB or PDB records

Row | Sequence | soluble on expression in E. coli
1 | MLRKDIGIDLGTANTLVFLRGKGIVVNEPSVIAIDSTTGEILKVGLEAKNMIGKTPATIKAIRPMRDGVIADYTVALVMLRYFINKAKGGMNLFKPRVVIGVPIGITDVERRAILDAGLEAGASKVFLIEEPMAAAIGSNLNVEEPSGNMVVDIGGGTTEVAVISLGSIVTWESIRIAGDEMDEAIVQYVRETYRVAIGERTAERVKIEIGNVFPSKENDELETTVSGIDLSTGLPRKLTLKGGEVREALRSVVVAIVESVRTTLEKTPPELVSDIIERGIFLTGGGSLLRGLDTLLQKETGISVIRSEEPLTAVAKGAGMVLDKVNILKKLQGAGGSHHHHHH | soluble
2 | MLRLLLLCWLCGVSFIGGAQELRVKDTASLTQALVQAQDGDTLVLDTAVYEGNFSVTRSIHIKGEAGATLDAQRQGSALTITAPKVIVEGLNIRHWGRDLYYHDAGILLLPGADEVLIKGNRFVGDGFGIYGEQLASPRIIENSISGNGAIYVLDRGDGIFLKHVTAPDVQQNHIIFVRDGVYLESVTDSKIHHNQFAKLQYGIHYMYTRGDEASQNQATSVDGGYALMNSQQIYLHHNRVSQARDFGILLNITNDSHVQANIATEVQHPQGSVELGNEGKGIFIYAAQNNRIEDNEFSQSDTGISMAMGGEANRLWHNRILGNQTQVKYVGEAQLEWSYQGQGNYWSEYRGWDTNGDGVGDIAHRPNDSLDKLFWLYPEAKLLMESPVVLLLRWVERQFQPTSISGVSDSFPLMRLITEGDGIAAALEHHHHHH | soluble
3 | MLRRYSHFYSIRYSSTLLSTLDGLTNRTSGDKLLTYSEKFSKLYANSTPETRKSIFVDLVTNYGVNKEALNHAISLYSKNDQMYPEVRTSATASYVNLIKSIGNLPGGVMQVCEMRANILALLKRETDKTTTSYLRHIELATREVLTSWFSLGNLKLERLTWSSPGDILQKVAEYEAVHPVRGLSDFRKRLGPLRRCFYFSHEALPRNPLVMVHVALVDEIADSVQEITKRGAPTGKEEDQTTAIYYSITSTQPGLSGIDLGNMLIKKVATKLQKDVPSVTTHSTLSPIPGFRPWLIRNLKGNSEYPSIMNEKVVNWISDISEREMNEVEATETLLKVISNEKTKKEQLNAIQHILMYACAHYLCNAKRNGMALNSVANFHIRNGAELYRLNWNGDTSHRGINNSFGIMVNYRYDLEKVHENSAAYTEHKKMAINQKVLDIF | not soluble
4 | MLRSNLCRGSRILARLTTTPRTYTSAATAAAANRGHIIKTYFNRDSTTITFSMEESSKPVSVCFNNVFLRDASHSAKLVTTGELYHNEKLTAPQDIQISEDGKSLVVKWKDGGHHQFPLQFFIDYKGSSFVSPATRKQESRYRPQLWNKRILKDNVKDLLSVSYNEFIDPKDDSKLFQTLVNLQKFGIAFISGTPSSSSEGLTIQKICERIGPIRSTVHGEGTFDVNASQATSVNAHYANKDLPLHTDLPFLENVPGFQILQSLPATEGEDPNTRPMNYFVDAFYATRNVRESDFEAYEALQIVPVNYIYENGDKRYYQSKPLIEHHDINEDNTLLGNYEALIKCINYSPPYQAPFTFGIYDKPSDLNNNLDLNLITTPAKLTERFLFKSFIRGLNLFESHINDFNNQFRLQLPENCCVIFNNRRILHANSLTSSNQQWLKGCYFDSDTFKSKLKFLEEKFPHDK | soluble
5 | MLRSTSDRFRWSSLSLAIACTLPLATQAADTTTTQTSSKKHSTDTMVVTATGNERSSFEAPMMVTVIEGNAPTSQTAATAADMLRQVPGLTVTGSGRTNGQDVVMRGYGKQGVLTLVDGVRQGTDTGHLNSTFLDPALVKRIEIVRGPAALLYGSGALGGVIAYETVDAADMLQPGQNSGYRVYSSAATGDHSFGLGASAFGRTDDLDGILSFGTRDIGNIRQSNGFNAPNDETISNVLAKGTWQIDSIQSLSANLRYYNNSAIEPKNPQTSAPSSTNVMTNRSTIQRDAQLRYNIKPLDQEWLNATAQVYYSEVEINARPQGSAEEGREQTTEGVKLENRTRLFIESPASHLLTYGTETYKQEQTPGGATESFPQAKIRFSSGWLQDEITLRDLPVSILAGTRYDNYSGSSDGYADVDADKWSSRGAISITPTDWLMLFGSYAQAFRAPTMGEMYNDSKHFAIPIRPGLTLTNYWVPNPNLKPETNETQEYGFGLRFSDLLMAEDDLQFKVSYFDTKAKDYISTRVDMQAMTTTSVNIDQAKIWGWDASMSYKTALFNWDLAYNRTRGKNQNTDEWLDTINPDTVTSIVDVPVANSGFSVGWIGTFANRSSRVSSSTPQAGYGVNDFYVSYKGQEAFKGMTTTMLLGNVFEKEYYTPQGIPQDGRNVKFFVSYQW | not soluble
6 | MLSCRDLVIRQGGKVLWQNLTFTISAGERVGIHAPSGTGKTTLGRVLAGWQKPTAGDVLLDGSPLPLHQYCPVQLVPQHPELTFNPWRSAGDAVRDAWQPDPETMRRLHVQPEWLTRRPMQLSGGELARIAILRALDPRTRFLIADEMTAQLDPSIQKAIWVYVLEVCRSRSLGMLVISHQSALLDQVCTRHLQVE | not soluble
7 | MLSEVEFVEFQKENFSLLIDARSPREFLHSHLIGALNFYALNDEEYQEIGTIYKKNQALAKAMGASYICQNTTKHILEITQNFRIGEKVGIYCSRGGLRSKSIAVILSELGFRVVRLKGGFKAYRTFVTHYFENEINFDFFALCGNTGCGKTELLEQLPQAINLEKMANHLGSSFGDILGKQPTQKAFEAELFHNIQNLENFAFIESESRKIGDIILPLKFYEKMQKAFKIYCFCSLENRVRRIQKIYQEKMTPLKFQQCVQKISPYISLNLRQDLLQSYERKEWQKLIVMLLEYYDKTYKKPDKIDLELNTDDILKAKEELLDHFKVQLLF | not soluble
8 | MLSKNLLEALNDQMNHEYFAAHAYMAMAAYCDKESYEGFANFFIQQAKEERFHGQKIYNYINDRGAHAEFRAVSAPKIDFSSILETFKDSLSQEQEVTRRFYNLSEIARQDKDYATISFLNWFLDEQVEEESMFETHINYLTRIGDDSNALYLYEKELGARTFDEE | not soluble
9 | MLSNDILRSVRYILKANNNDLVRILALGNVEATAEQIAVWLRKEDEEGFQRCPDIVLSSFLNGLIYEKRGKDESAPALEPERRINNNIVLKKLRIAFSLKTDDILAILTEQQFRVSMPEITAMMRAPDHKNFRECGDQFLRYFLRGLAARQHVKKG | soluble
10 | MLSQLREIVEKVSRVDDVHLALDILVKETCAALRTECCTIYLANEEMQRLELMATQGLIFEGDSIHINFNEGLVGLVKRSAEPLNLAEASKHPEFKFFPQLGEQVYHSFLATPIIHRKQVLGVLVIQQKTPRLFSEMEESFLVTLSAQLAVIIAHAQSLGHWQ | not soluble
11 | MLTEEKEDYLKAILTNNGDKNFVTNKILSQFLNIKPPSVSEMVGRLEKAGYVETKPYKGVRLTEDGLTHTLDIIKRHRLLELFLIEILKYNWEEVHQEAEILEHRISDLFVERLDSLLNFPETCPHGGVIPRNNEYKEKYITTILNYEPGDIVTIKRVRDKTDLLIYLSSKDISIGNEVEIVSKDEMNKVIIIKRNDNVIIVSYENAMNMFAEK | not soluble
12 | MLTGCSRRELLDDYPVSGVDIKLDWNGVTDKLPEGVRVIFYPKSAEGRKIDTYLSVRGGKVKVPPGRYSVVAYNYDTETVQIRGEEAYETIEAFTGYCNGLGIAGTEKMVWGPDPLYVVQIDDLHIANSEEELLLDWKPKLVVKTYFFKIKVEGLEYVSSIVGSVEGMAGCYCLGRCCGMMCDAPIYFEAQGRSGEVTGSFTAFGMPEAAISRAGDKIKLTLAFIKVDKTVQKAEIDITEVVTNSESGGSGGGNVDEPPTEIELPLDEKVKVEKPTTNPDGGGGGIGGDVGDWGDEDEVVLPVE | not soluble
13 | MLTIIKTILDVIVGVKERDYVKNTFNQLLKEKNITNYQYIRTAGNQILIDDRDILYVIHDKGWVSRGYGRITDIELSIDDSVAFQSSLSSATGRAIAGGVLAGGVGAIIGGVTGRKNGKKIVHRITLTISFNTPDRPYARVTFLDNQQGVDIYSDEYKRAEEDALYWSKLISSLMN | not soluble
14 | MLTLLMCGGKGTRLGRGEKPLFEVCGMKLIDHSLLQYKDFDVIAITSPHTPATESYLAEKGVEVYRAAGKGYIEDYSEACRELAINEPVIVASADIVYIRDIAFDIVDAYMKTIKPALTVVMEGEPVGVNIIDSLLINTWQEEEIYSIEKDSVVNVNTVADVERAERLWTTMRKERGWQRDLEHHHHHH | soluble
15 | MLTMKDVIREGDPILRNVAEEVVIPASEEDTNTLKEMIEFVINSQDPEMAEKYSLRPGIGLAAPQIGISKKMIAVHVTDTDGTLYSHALFNPKIISHSVERTYLQSGEGCLSVDREVPGYVPRYTRITVKATSINGEEVKLRLKGLPAIVFQHEIDHLNGVMFYDHINKENPFAAPDGSKPLER | not soluble
